Results on one substance are retold here after patent US20040265797A1.

The target of the experiment is Vitronectin purified from human plasma (human) (UniProt P04004). As to the kind of experiment: ELISA: biotinylated suPAR without uPA1-48 on vitronectin-coated wells. In general terms: An ELISA detects its analyte on a solid surface through an enzyme-linked reagent.
Vitronectin purified from human plasma (human), sequence (P04004 20-478): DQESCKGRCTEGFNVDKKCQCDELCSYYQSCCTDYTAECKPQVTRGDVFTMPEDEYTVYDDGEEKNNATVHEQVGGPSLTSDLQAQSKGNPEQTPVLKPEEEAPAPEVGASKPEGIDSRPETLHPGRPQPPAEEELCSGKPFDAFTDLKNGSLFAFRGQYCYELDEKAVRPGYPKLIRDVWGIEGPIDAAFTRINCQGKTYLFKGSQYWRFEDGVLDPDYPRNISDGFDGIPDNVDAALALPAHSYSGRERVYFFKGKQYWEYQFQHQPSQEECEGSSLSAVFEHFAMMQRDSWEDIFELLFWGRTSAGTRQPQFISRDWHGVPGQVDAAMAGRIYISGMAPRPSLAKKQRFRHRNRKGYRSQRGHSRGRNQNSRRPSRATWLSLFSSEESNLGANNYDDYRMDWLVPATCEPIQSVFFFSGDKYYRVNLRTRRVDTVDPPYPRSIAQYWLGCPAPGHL

On to “Soluble recombinant human urokinase receptor (suPAR) (from UniProt Q03405 23-299)”, for which the mean absorbance at 450 nm was found to be 0.03 OD450.
